# Entries after “also recorded” stand apart in the source; their conditions may differ. Bridge positions count the residues as written; N and C are the ends. Square brackets hold non-standard residues; d marks the D form. Ends that are not written are not given here. * marks the point of attachment. Biotin = O=C1N[C@H]2[C@H](CS[C@H]2CCCCC(=O)*)N1; R8 = C=CCCCCCC[C@@](C)(N)C(=O)O; S5 = C=CCCC[C@](C)(N)C(=O)O; Nle = CCCC[C@H](N)C(=O)O; Dab = NCC[C@H](N)C(=O)O; Acryloyl = C=CC(=O)*
# Columns and labels:
# [1] = Circular dichroism, α-helicity; format: physicochemical; conditions: in solution
# Description: Assays to Determine α-Helicity: Compounds are dissolved in an aqueous solution (e.g., 5 mM potassium phosphate solution at pH 7, or distilled H2O, to concentrations of 25-50 μM). Circular dichroism (CD) spectra are obtained on a spectropolarimeter (e.g., Jasco J-710, Aviv) using standard measurement parameters (e.g., temperature, 20° C.; wavelength, 190-260 nm; step resolution, 0.5 nm; speed, 20 nm/sec; accumulations, 10; response, 1 sec; bandwidth, 1 nm; path length, 0.1 cm). The α-helical content of each peptide is calculated by dividing the mean residue ellipticity by the reported value for a model helical decapeptide (Yang et al., Methods Enzymol. 130:208 (1986)).
# Circular Dichroism: Acetylated peptides were dissolved in 10% (vol/vol) acetonitrile in water for circular dichroism analyses, performed on an Aviv Biomedical spectrophotometer, as reported (see Bird et. al., Methods in Enzymol., 446:369-386 (2008)).
# [2] = molecular target: T1, Human E1 activating enzyme UBA1 (Homo sapiens, UniProt P22314); assay: In vitro enzyme inhibition assay: E1-mediated ubiquitin thioester transfer to E2 (band shift, silver stain); format: biochemical; conditions: for inhibition of E1-mediated thioester transfer to E2 by mutant / additional stapled peptides: SAH-UBE2A-11 variants and controls, Examples 4, 7, 13; for inhibition of E1-mediated thioester transfer to E2 by warhead-bearing stapled peptides: Example 8; for inhibition of E1-mediated ubiquitin transfer to E2 (conversion of E2 to E2~ubiquitin): 100 μM peptide, staple scan
# T1 sequence (P22314 1-1058): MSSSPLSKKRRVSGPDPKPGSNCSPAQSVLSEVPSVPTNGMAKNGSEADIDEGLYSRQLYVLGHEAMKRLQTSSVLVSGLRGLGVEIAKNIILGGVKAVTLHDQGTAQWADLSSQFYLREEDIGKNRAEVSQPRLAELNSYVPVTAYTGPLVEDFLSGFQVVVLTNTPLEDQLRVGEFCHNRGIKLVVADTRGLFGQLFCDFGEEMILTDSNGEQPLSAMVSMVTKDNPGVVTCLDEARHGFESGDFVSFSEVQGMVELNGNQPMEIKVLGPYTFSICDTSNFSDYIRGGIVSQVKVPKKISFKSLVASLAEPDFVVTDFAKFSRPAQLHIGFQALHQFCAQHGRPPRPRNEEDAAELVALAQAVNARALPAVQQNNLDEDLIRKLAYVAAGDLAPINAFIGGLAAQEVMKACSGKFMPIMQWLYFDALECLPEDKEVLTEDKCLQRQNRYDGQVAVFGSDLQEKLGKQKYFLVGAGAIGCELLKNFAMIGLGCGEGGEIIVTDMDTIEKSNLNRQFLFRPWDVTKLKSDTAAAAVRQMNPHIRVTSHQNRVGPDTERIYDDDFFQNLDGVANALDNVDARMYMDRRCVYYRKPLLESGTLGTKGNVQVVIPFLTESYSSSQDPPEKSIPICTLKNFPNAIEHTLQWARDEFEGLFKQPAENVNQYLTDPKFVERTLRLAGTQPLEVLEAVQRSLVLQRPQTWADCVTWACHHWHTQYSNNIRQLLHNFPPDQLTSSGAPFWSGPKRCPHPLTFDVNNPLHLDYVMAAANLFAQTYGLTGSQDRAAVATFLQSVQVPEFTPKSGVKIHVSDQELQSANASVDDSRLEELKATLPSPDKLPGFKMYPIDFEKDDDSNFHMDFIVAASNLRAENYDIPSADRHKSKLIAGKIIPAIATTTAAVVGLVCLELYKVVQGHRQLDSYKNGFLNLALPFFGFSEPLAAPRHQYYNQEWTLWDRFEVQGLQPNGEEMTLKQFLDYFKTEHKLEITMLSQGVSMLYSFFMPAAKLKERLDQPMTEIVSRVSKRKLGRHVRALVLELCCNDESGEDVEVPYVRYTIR
# Description: In vitro Enzyme Inhibition Assays: To assess an E2 hA peptide's inhibition of an E1 enzyme, an in vitro enzyme inhibition assay can be used, for example. The in vitro enzyme inhibition assay measures an E2 hA peptide's ability to inhibit conjugation of ubiquitin to E2 by E1. Briefly, recombinant E1 (e.g., UBA1), recombinant E2 (e.g., UBE2A), ubiquitin, and Mg-ATP are combined in the presence of an E2 hA peptide or vehicle control (e.g., 1% DMSO) for a period of time (e.g., 30 minutes) at room temperature in a buffer containing, e.g., 50 mM NaCl, 50 mM HEPES pH 7.5. Control reaction includes no E1. Reactions are quenched by addition of SDS-containing loading dye and samples are resolved on a gel (e.g., a 4-12% Bis-Tris protein gel) under nonreducing conditions. Proteins on the gel are visualized via, e.g., silver stain. Conjugation of ubiquitin to E2 by E1 is monitored by conversion of free E2 (˜17 kDa) to E2˜ubiquitin conjugate (˜26 kDa).
# Control reaction included no E1 enzyme. Reactions were quenched by addition of SDS-containing loading dye and samples were resolved on a 4-12% Bis-Tris protein gel under nonreducing conditions. Proteins were visualized via silver stain. Conjugation of ubiquitin to E2 by E1 was monitored by conversion of free E2 (17 kDa) to E2˜ubiquitin conjugate (26 kDa).
# The ability of the peptides to inhibit E1-mediated thioester transfer to E2 was evaluated. Human E1 activating enzyme UBA1 (10 nM), UbcH5b E2 enzyme (150 nM), ubiquitin (1 μM), and Mg-ATP (20 μM) were combined in the presence of stapled peptide at a range of concentrations or vehicle control (1% DMSO) for 45 minutes at room temperature in buffer containing 50 mM NaCl, 50 mM HEPES, 1 mM TCEP pH 7.5. Reactions were quenched by addition of SDS-containing loading dye and samples were resolved on a 4-12% Bis-Tris protein gel under nonreducing conditions. Proteins were visualized via silver stain. Conjugation of ubiquitin to E2 by E1 was monitored by conversion of free E2 (17 kDa) to E2˜ubiquitin conjugate (26 kDa). Inhibition percentage was calculated from densitometry of silver stain images.
# Streptavidin-biotin pull-down assays: For recombinant protein pull-downs, 10 pmol recombinant human UBA1 was incubated with 5 nmol C-terminally biotinylated SAH-UBE2A or DMSO vehicle control in a total volume of 1 mL binding buffer (50 mM NaCl, 20 mM HEPES, pH 7.4, 5 mM DTT) for 1.5 hours at 4° C. 30 μL of pre-equilibrated streptavidin agarose beads were then added and incubated for an additional 1.5 hours at 4° C. The beads were pelleted by centrifugation and washed three times with NP-40 buffer (20 mM HEPES, pH 7.4, 50 mM NaCl, 5 mM DTT, 0.5% [v/v] NP-40) before eluting the protein sample from the beads by heating at 70° C. for 10 min in 3×SDS loading buffer. Samples were subjected to electrophoresis and silver staining (Pierce 24612). For pull-down from cellular lysates, 0.75 mg HeLa cell lysate was incubated with 5 nmol C-terminally biotinylated SAH-UBE2A or DMSO vehicle control in a total volume of 1 mL binding buffer (50 mM NaCl, 20 mM HEPES, pH 7.4, 5 mM DTT) containing protease-phosphatase inhibitor cocktail for 2 hours at 4° C. 30 μL of pre-equilibrated streptavidin agarose beads (ThermoFisher 20357) were then added and incubated for an additional 1.5 hours at 4° C. The beads were pelleted by centrifugation and washed three times with NP-40 buffer (20 mM HEPES, pH 7.4, 50 mM NaCl, 5 mM DTT, 0.5% [v/v] NP-40) before eluting the protein sample from the beads by heating at 70° C. for 10 min in 3×SDS loading buffer. Proteins were separated by SDS-PAGE gel electrophoresis and detected by western blot against UBE1 (Abcam ab34711). In vitro Enzyme Inhibition Assays: Recombinant human E1 activating enzyme UBA1 (10 nM), E2 enzyme (150 nM), ubiquitin (1 μM), and Mg-ATP (20 μM) are combined in the presence of peptide or vehicle control (1% DMSO) for 45 minutes at room temperature in buffer containing 50 mM NaCl, 50 mM HEPES pH 7.5. Control reaction includes no E1 enzyme. […]
# [3] = molecular target: His-p53 (Homo sapiens, UniProt P04637); assay: Fluorescence microscopy of Ni-NTA agarose beads, untagged or with His-p53 control; format: binding; conditions: FITC-labeled peptide 10 μM
# [4] = molecular target: T2, His-UBA1 (Homo sapiens, UniProt P22314); assay: Fluorescence microscopy of Ni-NTA agarose beads with His-UBA1; format: binding; conditions: FITC-labeled peptide 10 μM
# T2 sequence (P22314 1-1058): T1 sequence (P22314 1-1058)
# Description: Fluorescence Microscopy: His-tagged UBA1 (25 μg) was incubated with Ni-NTA agarose beads (100 μl) (Invitrogen™ R90110) in PBS for 30 min. Beads were then incubated for 30 min with FITC-labeled peptide (10 μM). Beads were plated in […] (10 μl/well) (Corning 384-well High Content Imaging Glass Bottom Microplate) and imaged with an Olympus wide-field epifluorescence microscope, a 63×LCPlanFL NA 0.7 objective, and a CoolSNAP DYNO camera.
# [5] = listed as FITC-labeled SAH-UBE2A-11
# Chain of His-p53 (P04637 whole entry): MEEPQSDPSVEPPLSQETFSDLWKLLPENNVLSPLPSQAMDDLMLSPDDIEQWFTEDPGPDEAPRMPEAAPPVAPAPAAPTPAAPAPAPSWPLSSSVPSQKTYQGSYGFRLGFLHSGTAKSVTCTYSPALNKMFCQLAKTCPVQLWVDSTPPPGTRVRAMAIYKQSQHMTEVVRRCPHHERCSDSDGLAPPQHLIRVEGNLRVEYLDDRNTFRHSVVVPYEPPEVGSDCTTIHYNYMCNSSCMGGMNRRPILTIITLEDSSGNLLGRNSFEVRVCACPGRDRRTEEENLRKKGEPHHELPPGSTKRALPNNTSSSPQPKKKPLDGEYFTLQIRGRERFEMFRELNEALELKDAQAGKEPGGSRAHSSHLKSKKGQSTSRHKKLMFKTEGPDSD
substance,measurement,setting,value
"BSTPARRRLBRDFKRLQ ([Nle]STPARRRL[Nle]RDFKRLQ-NH2; not fully specified (N-terminus)) [UBE2A, unmodified (unstapled) UBE2A peptide, B is norleucine]",helicity / helical content,[1],21%
same,inhibition of E1-mediated thioester transfer to E2 by mutant / additional stapled peptides,[2],no inhibitory activity; also recorded: negligible inhibitory activity
BSTPX1RARLBRX2FKRLQ (Ac-[Nle]STP[R8]RARL[Nle]R[S5]FKRLQ-NH2; staple 5-12) [SEQ ID NO:817],inhibition of E1-mediated thioester transfer to E2 by mutant / additional stapled peptides,[2],impair the inhibitory activity of SAH-UBE2A-11
"BSTPX1RRRLBRX2FJRLQ ([Nle]STP[R8]RRRL[Nle]R[S5]F[Dab](Acryloyl)RLQ; staple 5-12; not fully specified (N-terminus, C-terminus); printed as BSTPX1RRRLBRX2FJRLQ) [SEQ ID NO:752, warhead-bearing stapled peptide, J acrylamide-bearing Dab at A11, staple A2 and A9]",inhibition of E1-mediated thioester transfer to E2 by warhead-bearing stapled peptides,[2],inhibited E1-mediated thioester transfer to E2
"FITC-SAH-UBE2A: FITC conjugated to SEQ ID NO: 132 ([Nle]STP[R8]RRRL[Nle]R[S5]FKRLQ; staple 5-12; not fully specified (C-terminus); also: FITC conjugate, site not settled)",binding of FITC-labeled peptide to untagged beads or His-p53 beads,[3],did not bind nonspecifically to the beads (top row) or to His-p53
same,binding of FITC-labeled peptide to untagged beads or His-p53 beads,[3]; [5],did not engage untagged beads or beads tagged with an unrelated protein (His-p53)
same,binding of FITC-labeled peptide to Ni-NTA beads with His-UBA1,[4],only bound to the beads in the presence of His-UBE1
same,binding of FITC-labeled peptide to Ni-NTA beads with His-UBA1,[4]; [5],binds specifically to Ni-NTA beads tagged with His-UBA1
BPSSX2SRQX2LRKQLKEIQ [SEQ ID NO:41],inhibition of E1-mediated ubiquitin transfer to E2 (conversion of E2 to E2~ubiquitin),"[2]; UbcH5b E2 enzyme, 45 minutes",unable to inhibit E1-mediated ubiquitin transfer to E2
BPSSASRX1LLRKQLX2EIQ [SEQ ID NO:52],inhibition of E1-mediated ubiquitin transfer to E2 (conversion of E2 to E2~ubiquitin),"[2]; UbcH5b E2 enzyme, 45 minutes",inhibited conversion of E2 to E2˜ubiquitin by E1
"BSTPX1RERLBRX2FKRLQ (Ac-[Nle]STP[S5]RERL[Nle]R[R8]FKRLQ-NH2; staple 5-12) [SAH-UBE2A-11-R7E, point mutant negative control stapled peptide]",inhibition of E1-mediated thioester transfer to E2 by mutant / additional stapled peptides,[2],reduced inhibitory activity as compared to SAH-UBE2A
same,inhibition of E1-mediated thioester transfer to a variety of human E2 enzymes,"[2]; panel of human E2 enzymes (UBE2A, UBE2B, UBE2C, UBE2D1-4 etc.)",diminished inhibitory capacity; also recorded: mitigated by a single point mutation (R7E)
BPSSASRQLX2RKQX2KEIQ [SEQ ID NO:45],inhibition of E1-mediated ubiquitin transfer to E2 (conversion of E2 to E2~ubiquitin),"[2]; UbcH5b E2 enzyme, 45 minutes",unable to inhibit E1-mediated ubiquitin transfer to E2
BPSSASRQLLRKQX2KEIX2 [SEQ ID NO:48],inhibition of E1-mediated ubiquitin transfer to E2 (conversion of E2 to E2~ubiquitin),"[2]; UbcH5b E2 enzyme, 45 minutes",unable to inhibit E1-mediated ubiquitin transfer to E2
"BPSSASRQLLRKQLKEIQZ ([Nle]PSSASRQLLRKQLKEIQK(Biotin)) [Ubc15-1, unmodified Ubc15 peptide, Z is biotinylated lysine]",helicity / helical content,[1],19%
"BPSSX1SRQLLRX2QLJEIQ ([Nle]PSS[R8]SRQLLR[S5]QL[Dab](Acryloyl)EIQ; staple 5-12; not fully specified (N-terminus, C-terminus); printed as BPSSX1SRQLLRX2QLJEIQ) [SEQ ID NO:841, warhead-bearing stapled peptide, J acrylamide-bearing Dab at A11, staple A1 and A8]",inhibition of E1-mediated thioester transfer to E2 by warhead-bearing stapled peptides,[2],inhibited E1-mediated thioester transfer to E2
BPSSAX1RQLLRKX2LKEIQ [SEQ ID NO:50],helicity / helical content,[1],51%
same,inhibition of E1-mediated ubiquitin transfer to E2 (conversion of E2 to E2~ubiquitin),"[2]; UbcH5b E2 enzyme, 45 minutes",best in this panel at inhibiting E1-mediated ubiquitin transfer to E2
same,"inhibition of E1-mediated thioester transfer to E2, dose response","[2]; range of peptide concentrations, UbcH5b E2 enzyme, 45 minutes, listed as SAH-Ubc15-11",inhibited E1-mediated thioester transfer to E2 in a dose-dependent manner; also recorded: dose-dependently inhibit E1-mediated thioester transfer to E2

# — patent US12358960B2, “Selective targeting of ubiquitin- and ubiquitin-like E1-activating enzymes by structurally-stabilized peptides” (Dana-Farber Cancer Institute, Inc., priority 2019, dated 2025)
